Biological target: ParA (pMF1.22) co-expressed with ParC from pET15b (Myxococcus fulvus 124B02 (plasmid pMF1))
Test: SDS-PAGE band identified by mass spectrometry

stoichiometry N (ParC:ParA molar ratio): 1
Substance: ParC (pMF1.21) co-expressed in front of ParA from pET15b (natural protein)

— paper doi:10.1101/2020.07.24.219303
